{
  "source": "paper PMC12251106",
  "about": "“An Organic Solvent-Tolerant α-L-Rhamnosidase from Dictyoglomus thermophilum and Its Application in Production of Icariside I from Icariin” (Molecules, 2025)",
  "substrate": "C[C@@H]1O[C@@H](Oc2ccc([N+](=O)[O-])cc2)[C@H](O)[C@H](O)[C@H]1O",
  "assay": "purified protein",
  "assay_type": "biochemical, Dictyoglomus thermophilum",
  "conditions": "100 mM NaAc-HAc pH 6.0, 55 °C, 0.1-5 mM pNPR, 0.2 mg/mL enzyme, apparent parameters",
  "data": [
    {"protein": "DthRha (Dictyoglomus thermophilum H-6-12) (protein, 921 residues (2763 bp gene); theoretical 106 kDa, about 105 kDa on SDS-PAGE) MKSSNIYSPFDLKCEFTTNPLGVDKKNPIFSWKLRHLEKNEKQTAYQVIVSSSLETINDNIGDVWDTGKVLSSEQVIKYEGKELEPCKVYFWKVRWWDSKDQESPFSVVNTFETGLMNEENWKAKWITKKEHKYEVYSPDGAPFGLNYTIAYAPMFRKSFSISKKIKRARVYIAGLGLYELYINGERIGDRVLDPGQTDYKKRVLYTVYDVSKNIRDGKNAIGVILGNGRYVKEYGYDFPKLIIQVLVEYEDDSIEWIVSDESWKTTYGPITLNSLYHGEIYDGRKEIKGWNLPDFDDSTWENAILAEPPGGKLYSEIYPPIRITKTIKPIKMWSPEPGTYVYDFGQNYTGWIKIKVRTNESGKEIRIRHAELTYEDGTLNYSTNRTALATDVYITKGEGYEEYEPRFTYHGFRYVEILGYPGVPTLEDIEGKVVHTAVESNGEFICSNELINKIHHNIIWGQLSNLMSIPTDCPQRDERMGWMGDAQLSAEEAIFNFDMIGFYRKYLNDIRDAQKENGSLSDVIPPYWSIYPGDPAWSTAYITIAWYLYQYYGDKYVLEEHYEGFKKYVEFLKKLAPDYIVSFYKYGDWCQPGTVRPKDNSGELTSTFYFYHDVITLSKIAKLLGKEADYKYYSELADKIKSAFNKKFLKEKAYASIPTELSEENVKALLEKYPEDIKDFLRQQFTILSSLGMFTSQTLNTLPLYLNLVPEDKVQDVLKTLLEDIIIRHDYHLDTGIVATRYIFDVLTSYGYDEVAYKIVNQKTYPSFGYMIEEGATTLWERWEKLTSTGMNSHNHIMFGSVDAWFYRVIAGVRVGEPGWNKIIFEPHPVGDLKYAKARLNTIKGEVEINWQKTENIFSMRISVPVNSEGEVHVPKLFERFVVKEGDNIIYEKKGDLEENEKYIVIRVGSGSYNFYMEKI", "values": [
      {"measurement": "Km", "result": 440, "unit": "µM"},
      {"measurement": "kcat", "result": 7.99, "unit": "s⁻¹"},
      {"measurement": "kcat/Km", "result": 18200, "unit": "M⁻¹ s⁻¹"}
    ]}
  ]
}
